In patent US20250115664A1 (Bristol-Myers Squibb, published 2025):
Blank lines part the entries; values can stand above or below the binder they belong to.

Assays:
[1] = molecular target: T1, human TIM3 on cells (transfected CHO cells, activated human T cells, Th1 cells, TILs) (human, UniProt Q8TDQ0 22-300); assay: flow cytometry, human TIM3 positive cells (activated human T cells per paragraph 648), GMFI (PE); EC50 unit inferred, unit taken from the axis label ug/mL
T1 construct: also called hTIM3

[2] = molecular target: T1, human TIM3 on cells (transfected CHO …); assay: saturation binding of 125I-labeled antibody to CHO cells with human TIM3 (CHOhu TIM3 25K), table row Kd, column Specific Binding; the cell has no unit, nM is taken from the concentration axis and the box below
[3] = molecular target: T1, human TIM3 on cells (transfected CHO …); assay: saturation binding of 125I-labeled antibody to CHO cells with human TIM3 (CHOhu TIM3 25K), table row Kd, column Total; the cell has no unit, nM is taken from the concentration axis
[4] = molecular target: T2, cynomolgus TIM3 on cells (transfected CHO cells, activated cyno T cells, cyno spleen) (cynomolgus); assay: saturation binding of 125I-labeled antibody to CHO cells with cyno TIM3 (CHOcyno TIM3 25K), table row Kd, column Total; the cell has no unit, nM is taken from the concentration axis
T2 construct: also called cyno TIM3
T2 chain: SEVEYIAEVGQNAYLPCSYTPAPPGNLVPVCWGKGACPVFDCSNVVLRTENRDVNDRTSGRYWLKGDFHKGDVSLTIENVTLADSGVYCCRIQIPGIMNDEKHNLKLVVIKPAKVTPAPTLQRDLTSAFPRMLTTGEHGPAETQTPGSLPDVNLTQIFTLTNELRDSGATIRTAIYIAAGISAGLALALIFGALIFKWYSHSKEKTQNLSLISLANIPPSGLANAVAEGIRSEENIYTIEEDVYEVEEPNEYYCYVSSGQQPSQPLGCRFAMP

[5] = molecular target: T3, Human TIM3-IgV (Example 22) (human, UniProt Q8TDQ0 22-130); assay: SPR Biacore T200, 37 C; antibody captured on anti-hFc chip, TIM3 protein as analyte, single cycle kinetics, 1:1 model
T3 construct: also called hTim3-IgV; hTIM3-IgV

- EC50 [1]: 0.0116 µg/mL
B1: anti-TIM3 monoclonal antibody 13A3 (antibody, V domains shown)
VH: QLQLQESGPGLVKPSETLSLTCTVSGGSISSRSYYWGWIRQPPGKGLEWIGSIYYSGFTYYNPSLKSRVTISVDTSKNQFSLKLSSVTAADTAVYYCATGGPYGDYAHWFDPWGQGTLVTVSS
VL: not shown
notes: also called 13A3-g4

- Kd [2]: 0.262 nM
- Kd [3]: 0.278 nM
- Kd [4]: 0.581 nM
B2: TIM3.18·IgG1.3 (antibody, V domains shown)
VH: QLQLQESGPGLVKPSETLSLTCTVSGGSISSRSYYWGWIRQPPGKGLEWIGSIYYSGFTYYQPSLKSRVTISVDTSKNQFSLKLSSVTAADTAVYYCATGGPYGDYAHWFEPWGQGTLVTVSS
VL: not shown
notes: also called TIM3.18 (13A3) IgG1.3f (N60Q/D101E)

- Kd [5]: 7.1 nM
B3: Tim3.18 (13A3 VH-N60Q-D101E), constant region not stated (antibody, V domains shown)
VH: QLQLQESGPGLVKPSETLSLTCTVSGGSISSRSYYWGWIRQPPGKGLEWIGSIYYSGFTYYQPSLKSRVTISVDTSKNQFSLKLSSVTAADTAVYYCATGGPYGDYAHWFEPWGQGTLVTVSS
VL: not shown

- EC50 [1]: 0.0139 µg/mL
B4: anti-TIM3 monoclonal antibody 14H7 (antibody, V domains shown)
VH: QVHLVESGGGLVKPGGSLRLSCTAFSDYYMSWIRQAPGKGLEWLSYISNSGSIIYYADSVKGRFTISRDNAKNSVYLQMNSLRAEDTAVYYCARGRIGFFDYWGPGTLVTVSS
VL: not shown

- Kd [5]: 14 nM
- koff [5]: 0.011 s⁻¹
- kon [5]: 780000 M⁻¹ s⁻¹
B5: TIM3.24 (14H7) (antibody, V domains shown)
VH: QVHLVESGGGLVKPGGSLRLSCTAFSDYYMSWIRQAPGKGLEWLSYISNSGSIIYYADSVKGRFTISRDNAKNSVYLQMNSLRAEDTAVYYCARGRIGFFDYWGPGTLVTVSS
VL: not shown
notes: also called 14H7/TIM3.24

- EC50 [1]: 0.0229 µg/mL
B6: anti-TIM3 monoclonal antibody 23B3 (antibody, V domains shown)
VH: QVQLVGSGGGLVKPGGSLRLSCAASGFTFSDYYMSWIRQAPGKGLEWVSFISGSGSIIYYADSVKGRFTISRDNAKNSLDLQMNSLRAEDTAVYYCARDGMVRGMNFYGMDVWGQGTTVTVSS
VL: not shown

- Kd [5]: 2.2 nM
- koff [5]: 0.0013 s⁻¹
- kon [5]: 600000 M⁻¹ s⁻¹
B7: TIM3.25 (23B3 VH-G6E-D79Y) (antibody, V domains shown)
VH: QVQLVESGGGLVKPGGSLRLSCAASGFTFSDYYMSWIRQAPGKGLEWVSFISGSGSIIYYADSVKGRFTISRDNAKNSLYLQMNSLRAEDTAVYYCARDGMVRGMNFYGMDVWGQGTTVTVSS
VL: not shown
